Experimental data published in patent US20250339531A1, “DUX4 POLYPEPTIDES AND NUCLEIC ACIDS FOR TREATING INFLAMMATORY AND AUTOIMMUNE CONDITIONS” (Fred Hutchinson Cancer Center, priority 2021, published 2025).

How the values were obtained:
[1] = biological target: Prostate tumor-overexpressed gene 1 protein (Homo sapiens) (UniProt Q86YD1); experiment: anti-FLAG co-IP LC-MS, exp 3, +Dox
[2] = biological target: S-adenosylhomocysteine hydrolase-like protein 1 (Homo sapiens) (UniProt O43865); experiment: anti-FLAG co-IP LC-MS, exp 3, +Dox
[3] = biological target: Tubulin beta-6 chain (Homo sapiens) (UniProt Q9BUF5); experiment: anti-FLAG co-IP LC-MS, exp 3, +Dox
[4] = biological target: 40S ribosomal protein S3a (Homo sapiens) (UniProt P61247); experiment: anti-FLAG co-IP LC-MS, exp 4, +Dox +IFNG
[5] = biological target: 40S ribosomal protein S6 (Homo sapiens) (UniProt P62753); experiment: anti-FLAG co-IP LC-MS, exp 4, +Dox +IFNG
[6] = biological target: 60S ribosomal protein L11 (Homo sapiens) (UniProt P62913); experiment: anti-FLAG co-IP LC-MS, exp 4, +Dox +IFNG
[7] = biological target: 60S ribosomal protein L13 (Homo sapiens) (UniProt P26373); experiment: anti-FLAG co-IP LC-MS, exp 4, +Dox +IFNG
[8] = biological target: AP-2 complex subunit alpha-1 (Homo sapiens) (UniProt O95782); experiment: anti-FLAG co-IP LC-MS, exp 4, +Dox +IFNG
[9] = biological target: Alpha-enolase (Homo sapiens) (UniProt P06733); experiment: anti-FLAG co-IP LC-MS, exp 4, +Dox +IFNG
[10] = biological target: Calpain-2 catalytic subunit (Homo sapiens) (UniProt P17655); experiment: anti-FLAG co-IP LC-MS, exp 4, +Dox +IFNG
[11] = biological target: Capping protein (Actin filament) muscle Z-line, beta, isoform CRA_d (Homo sapiens) (UniProt B1AK88); experiment: anti-FLAG co-IP LC-MS, exp 4, +Dox +IFNG
[12] = biological target: Clathrin heavy chain (Homo sapiens) (UniProt Q00610); experiment: anti-FLAG co-IP LC-MS, exp 4, +Dox +IFNG
[13] = biological target: Coronin-1C (Homo sapiens) (UniProt Q9ULV4); experiment: anti-FLAG co-IP LC-MS, exp 4, +Dox +IFNG
[14] = biological target: Drebrin (Homo sapiens) (UniProt Q16643); experiment: anti-FLAG co-IP LC-MS, exp 4, +Dox +IFNG
[15] = biological target: Elongation factor 1-alpha 1 (Homo sapiens) (UniProt P68104); experiment: anti-FLAG co-IP LC-MS, exp 4, +Dox +IFNG
[16] = biological target: Guanine nucleotide-binding protein G(i) subunit alpha-2 (Homo sapiens) (UniProt P04899); experiment: anti-FLAG co-IP LC-MS, exp 4, +Dox +IFNG
[17] = biological target: Heat shock cognate 71 kDa protein (Homo sapiens) (UniProt P11142); experiment: anti-FLAG co-IP LC-MS, exp 4, +Dox +IFNG
[18] = biological target: Heat shock protein HSP 90-alpha (Homo sapiens) (UniProt P07900); experiment: anti-FLAG co-IP LC-MS, exp 4, +Dox +IFNG
[19] = biological target: Heterogeneous nuclear ribonucleoprotein K (Homo sapiens) (UniProt P61978); experiment: anti-FLAG co-IP LC-MS, exp 4, +Dox +IFNG
[20] = biological target: Importin subunit alpha-5 (Homo sapiens) (UniProt P52294); experiment: anti-FLAG co-IP LC-MS, exp 4, +Dox +IFNG
[21] = biological target: Importin subunit beta-1 (Homo sapiens) (UniProt Q14974); experiment: anti-FLAG co-IP LC-MS, exp 4, +Dox +IFNG
[22] = biological target: Myosin regulatory light chain 12A (Homo sapiens) (UniProt J3QRS3); experiment: anti-FLAG co-IP LC-MS, exp 4, +Dox +IFNG
[23] = biological target: Nucleosome assembly protein 1-like 1 (Homo sapiens) (UniProt P55209); experiment: anti-FLAG co-IP LC-MS, exp 4, +Dox +IFNG
[24] = biological target: Phosphate carrier protein, mitochondrial (Homo sapiens) (UniProt Q00325); experiment: anti-FLAG co-IP LC-MS, exp 4, +Dox +IFNG
[25] = biological target: Plectin (Homo sapiens) (UniProt Q15149); experiment: anti-FLAG co-IP LC-MS, exp 4, +Dox +IFNG
[26] = biological target: Prelamin-A/C (Homo sapiens) (UniProt P02545); experiment: anti-FLAG co-IP LC-MS, exp 4, +Dox +IFNG
[27] = biological target: Probable ubiquitin carboxyl-terminal hydrolase FAF-X (Homo sapiens) (UniProt Q93008); experiment: anti-FLAG co-IP LC-MS, exp 4, +Dox +IFNG
[28] = biological target: Procollagen-lysine, 2-oxoglutarate 5-dioxygenase 1 (Homo sapiens) (UniProt Q02809); experiment: anti-FLAG co-IP LC-MS, exp 4, +Dox +IFNG
[29] = biological target: Procollagen-lysine,2-oxoglutarate 5-dioxygenase 2 (Homo sapiens) (UniProt O00469); experiment: anti-FLAG co-IP LC-MS, exp 4, +Dox +IFNG
[30] = biological target: Stress-70 protein, mitochondrial (Homo sapiens) (UniProt P38646); experiment: anti-FLAG co-IP LC-MS, exp 4, +Dox +IFNG
[31] = biological target: T-complex protein 1 subunit gamma (Homo sapiens) (UniProt P49368); experiment: anti-FLAG co-IP LC-MS, exp 4, +Dox +IFNG
[32] = biological target: Talin-1 (Homo sapiens) (UniProt Q9Y490); experiment: anti-FLAG co-IP LC-MS, exp 4, +Dox +IFNG
[33] = biological target: Transcription intermediary factor 1-beta (Homo sapiens) (UniProt Q13263); experiment: anti-FLAG co-IP LC-MS, exp 4, +Dox +IFNG
[34] = biological target: Tubulin beta chain (Homo sapiens) (UniProt P07437); experiment: anti-FLAG co-IP LC-MS, exp 4, +Dox +IFNG
[35] = biological target: Tubulin beta-6 chain (Homo sapiens) (UniProt Q9BUF5); experiment: anti-FLAG co-IP LC-MS, exp 4, +Dox +IFNG
[36] = biological target: WD repeat-containing protein 1 (Homo sapiens) (UniProt O75083); experiment: anti-FLAG co-IP LC-MS, exp 4, +Dox +IFNG
[37] = biological target: cAMP-dependent protein kinase type I-alpha regulatory subunit (Homo sapiens) (UniProt P10644); experiment: anti-FLAG co-IP LC-MS, exp 4, +Dox +IFNG

Chain of Tubulin beta-6 chain (Homo sapiens) (Q9BUF5 whole entry): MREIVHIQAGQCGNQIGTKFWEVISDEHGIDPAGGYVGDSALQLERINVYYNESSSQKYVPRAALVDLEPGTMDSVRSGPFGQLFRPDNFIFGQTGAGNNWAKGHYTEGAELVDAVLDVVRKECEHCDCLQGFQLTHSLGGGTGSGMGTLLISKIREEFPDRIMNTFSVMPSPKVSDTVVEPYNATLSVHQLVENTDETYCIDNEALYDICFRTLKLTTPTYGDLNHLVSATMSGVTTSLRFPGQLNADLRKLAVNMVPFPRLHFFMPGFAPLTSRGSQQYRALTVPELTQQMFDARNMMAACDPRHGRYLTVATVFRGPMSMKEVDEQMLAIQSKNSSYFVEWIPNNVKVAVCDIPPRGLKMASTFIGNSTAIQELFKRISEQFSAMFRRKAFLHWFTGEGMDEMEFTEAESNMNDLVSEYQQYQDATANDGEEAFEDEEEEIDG
Chain of Phosphate carrier protein, mitochondrial (Homo sapiens) (Q00325 50-362 limits assumed): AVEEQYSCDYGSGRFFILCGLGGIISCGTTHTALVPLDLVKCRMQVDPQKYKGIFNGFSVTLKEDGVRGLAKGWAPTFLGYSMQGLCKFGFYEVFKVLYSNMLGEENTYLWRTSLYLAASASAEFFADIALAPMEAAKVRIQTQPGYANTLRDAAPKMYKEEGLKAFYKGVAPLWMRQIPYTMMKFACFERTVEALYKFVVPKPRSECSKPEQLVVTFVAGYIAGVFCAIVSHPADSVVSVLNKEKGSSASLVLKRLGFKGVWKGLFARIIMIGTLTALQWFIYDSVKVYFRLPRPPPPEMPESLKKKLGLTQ
Chain of Coronin-1C (Homo sapiens) (Q9ULV4 whole entry): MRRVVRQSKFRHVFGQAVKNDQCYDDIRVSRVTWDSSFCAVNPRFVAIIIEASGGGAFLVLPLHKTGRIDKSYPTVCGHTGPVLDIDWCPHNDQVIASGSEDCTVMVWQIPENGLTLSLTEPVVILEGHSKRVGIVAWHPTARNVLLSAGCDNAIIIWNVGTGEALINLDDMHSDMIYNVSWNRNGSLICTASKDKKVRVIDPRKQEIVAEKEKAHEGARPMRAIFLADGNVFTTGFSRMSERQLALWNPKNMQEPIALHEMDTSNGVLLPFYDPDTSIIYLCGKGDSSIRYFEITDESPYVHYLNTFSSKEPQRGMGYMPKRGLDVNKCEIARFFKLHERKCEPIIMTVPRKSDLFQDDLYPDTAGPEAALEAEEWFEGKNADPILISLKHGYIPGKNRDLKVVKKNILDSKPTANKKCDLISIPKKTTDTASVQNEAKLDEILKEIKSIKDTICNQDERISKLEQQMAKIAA
Chain of Probable ubiquitin carboxyl-terminal hydrolase FAF-X (Homo sapiens) (Q93008 whole entry): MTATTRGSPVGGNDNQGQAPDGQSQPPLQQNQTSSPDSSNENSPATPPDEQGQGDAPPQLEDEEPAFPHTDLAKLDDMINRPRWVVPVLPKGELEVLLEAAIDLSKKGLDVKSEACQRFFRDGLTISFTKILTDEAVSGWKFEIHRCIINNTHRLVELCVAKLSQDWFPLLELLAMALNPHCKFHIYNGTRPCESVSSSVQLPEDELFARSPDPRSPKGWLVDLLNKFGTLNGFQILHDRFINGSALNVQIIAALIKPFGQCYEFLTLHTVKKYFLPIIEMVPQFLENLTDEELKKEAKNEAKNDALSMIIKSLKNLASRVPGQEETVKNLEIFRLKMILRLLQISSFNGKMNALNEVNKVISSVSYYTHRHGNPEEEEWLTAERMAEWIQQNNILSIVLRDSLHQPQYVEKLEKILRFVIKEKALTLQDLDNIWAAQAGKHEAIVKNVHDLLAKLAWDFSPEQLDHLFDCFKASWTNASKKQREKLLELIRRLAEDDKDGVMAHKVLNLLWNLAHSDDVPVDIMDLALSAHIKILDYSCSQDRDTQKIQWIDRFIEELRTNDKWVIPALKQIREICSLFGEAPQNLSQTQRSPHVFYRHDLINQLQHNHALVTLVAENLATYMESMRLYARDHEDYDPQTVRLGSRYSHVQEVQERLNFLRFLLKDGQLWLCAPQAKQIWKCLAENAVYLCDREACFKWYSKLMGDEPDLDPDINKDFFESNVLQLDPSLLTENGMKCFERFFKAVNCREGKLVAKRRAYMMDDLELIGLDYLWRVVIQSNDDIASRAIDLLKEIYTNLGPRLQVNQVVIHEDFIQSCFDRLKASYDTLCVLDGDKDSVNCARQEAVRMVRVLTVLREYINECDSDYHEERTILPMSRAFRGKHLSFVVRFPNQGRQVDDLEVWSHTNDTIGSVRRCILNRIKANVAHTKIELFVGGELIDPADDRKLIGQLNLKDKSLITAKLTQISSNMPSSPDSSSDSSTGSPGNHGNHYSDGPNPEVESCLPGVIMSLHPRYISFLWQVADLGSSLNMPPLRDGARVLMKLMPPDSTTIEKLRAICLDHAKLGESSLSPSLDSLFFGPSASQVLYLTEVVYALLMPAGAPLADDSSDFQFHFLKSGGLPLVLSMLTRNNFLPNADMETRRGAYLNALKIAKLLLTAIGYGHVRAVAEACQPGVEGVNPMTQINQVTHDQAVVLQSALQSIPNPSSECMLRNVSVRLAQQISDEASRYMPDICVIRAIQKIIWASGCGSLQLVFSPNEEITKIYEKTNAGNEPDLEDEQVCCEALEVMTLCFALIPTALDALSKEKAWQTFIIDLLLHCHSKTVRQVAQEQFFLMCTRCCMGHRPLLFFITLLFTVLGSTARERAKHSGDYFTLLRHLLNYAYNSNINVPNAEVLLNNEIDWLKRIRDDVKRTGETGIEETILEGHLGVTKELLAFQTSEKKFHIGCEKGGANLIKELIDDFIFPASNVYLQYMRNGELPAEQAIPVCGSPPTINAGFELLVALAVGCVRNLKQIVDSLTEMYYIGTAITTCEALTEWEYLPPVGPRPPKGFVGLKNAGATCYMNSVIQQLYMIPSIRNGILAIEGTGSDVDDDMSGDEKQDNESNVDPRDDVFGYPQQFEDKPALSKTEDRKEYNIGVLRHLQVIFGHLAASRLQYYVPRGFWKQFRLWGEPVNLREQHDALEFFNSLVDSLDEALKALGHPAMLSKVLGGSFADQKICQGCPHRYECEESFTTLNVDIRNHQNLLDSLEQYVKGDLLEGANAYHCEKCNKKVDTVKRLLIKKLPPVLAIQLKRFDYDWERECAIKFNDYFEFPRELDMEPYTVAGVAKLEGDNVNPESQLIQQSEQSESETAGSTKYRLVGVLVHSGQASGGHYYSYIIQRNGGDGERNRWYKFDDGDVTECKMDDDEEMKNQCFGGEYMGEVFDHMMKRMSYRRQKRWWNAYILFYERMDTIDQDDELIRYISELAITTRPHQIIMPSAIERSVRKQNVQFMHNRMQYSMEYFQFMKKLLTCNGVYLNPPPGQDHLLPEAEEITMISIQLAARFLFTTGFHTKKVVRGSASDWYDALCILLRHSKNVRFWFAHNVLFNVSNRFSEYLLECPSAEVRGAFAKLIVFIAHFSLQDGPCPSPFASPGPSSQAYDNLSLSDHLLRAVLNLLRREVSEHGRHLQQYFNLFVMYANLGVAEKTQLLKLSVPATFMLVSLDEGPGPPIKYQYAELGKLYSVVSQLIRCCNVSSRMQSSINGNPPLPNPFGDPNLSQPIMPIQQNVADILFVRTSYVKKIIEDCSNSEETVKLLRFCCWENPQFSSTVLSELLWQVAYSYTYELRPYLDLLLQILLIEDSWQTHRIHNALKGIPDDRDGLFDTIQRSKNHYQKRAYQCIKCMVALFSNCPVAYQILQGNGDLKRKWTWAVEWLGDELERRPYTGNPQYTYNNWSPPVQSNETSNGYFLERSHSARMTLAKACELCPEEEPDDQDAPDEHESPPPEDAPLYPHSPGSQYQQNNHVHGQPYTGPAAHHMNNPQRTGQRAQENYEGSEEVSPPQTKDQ
Chain of Importin subunit beta-1 (Homo sapiens) (Q14974 whole entry): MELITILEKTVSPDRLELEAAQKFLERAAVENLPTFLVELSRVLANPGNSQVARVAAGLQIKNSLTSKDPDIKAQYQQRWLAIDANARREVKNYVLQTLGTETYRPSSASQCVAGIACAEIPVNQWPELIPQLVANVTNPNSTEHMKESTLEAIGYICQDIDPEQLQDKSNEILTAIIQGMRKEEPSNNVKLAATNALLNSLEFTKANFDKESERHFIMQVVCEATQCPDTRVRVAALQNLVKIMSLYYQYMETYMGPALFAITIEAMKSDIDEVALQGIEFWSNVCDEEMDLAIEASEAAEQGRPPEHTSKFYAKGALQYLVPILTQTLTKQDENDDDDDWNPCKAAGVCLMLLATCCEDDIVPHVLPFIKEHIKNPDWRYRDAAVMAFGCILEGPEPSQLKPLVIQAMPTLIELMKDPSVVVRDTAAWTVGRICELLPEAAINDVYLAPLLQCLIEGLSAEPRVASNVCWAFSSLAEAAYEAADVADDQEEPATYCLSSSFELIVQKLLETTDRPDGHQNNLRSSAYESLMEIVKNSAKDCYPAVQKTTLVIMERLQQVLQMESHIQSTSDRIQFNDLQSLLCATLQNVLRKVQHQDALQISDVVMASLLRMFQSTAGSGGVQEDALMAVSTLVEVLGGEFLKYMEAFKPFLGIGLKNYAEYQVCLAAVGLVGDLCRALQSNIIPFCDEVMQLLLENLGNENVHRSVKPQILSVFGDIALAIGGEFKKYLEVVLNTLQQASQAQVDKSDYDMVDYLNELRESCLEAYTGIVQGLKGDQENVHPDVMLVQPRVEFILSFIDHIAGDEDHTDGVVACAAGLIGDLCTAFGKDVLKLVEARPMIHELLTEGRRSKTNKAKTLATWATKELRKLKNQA
Chain of Capping protein (Actin filament) muscle Z-line, beta, isoform CRA_d (Homo sapiens) (B1AK88 entry or part of it limits assumed, form in doubt): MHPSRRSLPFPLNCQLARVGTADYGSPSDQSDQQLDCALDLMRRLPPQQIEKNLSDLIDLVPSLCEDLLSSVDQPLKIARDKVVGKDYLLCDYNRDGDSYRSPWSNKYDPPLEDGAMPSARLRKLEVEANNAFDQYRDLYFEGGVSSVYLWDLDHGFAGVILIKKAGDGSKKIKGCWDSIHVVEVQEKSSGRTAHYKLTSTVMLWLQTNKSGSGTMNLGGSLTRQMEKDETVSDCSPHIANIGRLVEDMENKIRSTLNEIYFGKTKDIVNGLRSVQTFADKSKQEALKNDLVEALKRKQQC

i3XFLAG-NLS-CTDaa154-424
PSMs [1]: 2 PSMs
PSMs [2]: 7 PSMs
PSMs [3]: 20 PSMs
PSMs [4]: 2 PSMs
PSMs [5]: 2 PSMs
PSMs [6]: 3 PSMs
PSMs [7]: 2 PSMs
PSMs [8]: 2 PSMs
PSMs [9]: 2 PSMs
PSMs [10]: 3 PSMs
PSMs [11]: 11 PSMs
PSMs [12]: 28 PSMs
PSMs [13]: 7 PSMs
PSMs [14]: 33 PSMs
PSMs [15]: 9 PSMs
PSMs [16]: 11 PSMs
PSMs [17]: 105 PSMs
PSMs [18]: 10 PSMs
PSMs [19]: 6 PSMs
PSMs [20]: 2 PSMs
PSMs [21]: 3 PSMs
PSMs [22]: 62 PSMs
PSMs [23]: 3 PSMs
PSMs [24]: 2 PSMs
PSMs [25]: 7 PSMs
PSMs [26]: 6 PSMs
PSMs [27]: 3 PSMs
PSMs [28]: 6 PSMs
PSMs [29]: 7 PSMs
PSMs [30]: 7 PSMs
PSMs [31]: 2 PSMs
PSMs [32]: 3 PSMs
PSMs [33]: 2 PSMs
PSMs [34]: 110 PSMs
PSMs [35]: 46 PSMs
PSMs [36]: 11 PSMs
PSMs [37]: 3 PSMs
